Laboratory results taken from US20100081787A1 (FIBREX MEDICAL RESEARCH AND DEVELOPMENT, published 2010).
Numbered stars: 1 amine (or outer) side, 2 acyl side, 3 side chain; on linkers, the order of the positions; unused ones are H or OH. Square brackets hold non-standard residues; d marks the D form. Ends that are not written are not given here. ACHC(1S,2R) = O=C([C@H]1CCCC[C@H]1N[*:1])[*:2]

Molecular target: T1, vascular endothelial (VE) cadherin (human, UniProt P33151 48-784)
T1 sequence (looked up): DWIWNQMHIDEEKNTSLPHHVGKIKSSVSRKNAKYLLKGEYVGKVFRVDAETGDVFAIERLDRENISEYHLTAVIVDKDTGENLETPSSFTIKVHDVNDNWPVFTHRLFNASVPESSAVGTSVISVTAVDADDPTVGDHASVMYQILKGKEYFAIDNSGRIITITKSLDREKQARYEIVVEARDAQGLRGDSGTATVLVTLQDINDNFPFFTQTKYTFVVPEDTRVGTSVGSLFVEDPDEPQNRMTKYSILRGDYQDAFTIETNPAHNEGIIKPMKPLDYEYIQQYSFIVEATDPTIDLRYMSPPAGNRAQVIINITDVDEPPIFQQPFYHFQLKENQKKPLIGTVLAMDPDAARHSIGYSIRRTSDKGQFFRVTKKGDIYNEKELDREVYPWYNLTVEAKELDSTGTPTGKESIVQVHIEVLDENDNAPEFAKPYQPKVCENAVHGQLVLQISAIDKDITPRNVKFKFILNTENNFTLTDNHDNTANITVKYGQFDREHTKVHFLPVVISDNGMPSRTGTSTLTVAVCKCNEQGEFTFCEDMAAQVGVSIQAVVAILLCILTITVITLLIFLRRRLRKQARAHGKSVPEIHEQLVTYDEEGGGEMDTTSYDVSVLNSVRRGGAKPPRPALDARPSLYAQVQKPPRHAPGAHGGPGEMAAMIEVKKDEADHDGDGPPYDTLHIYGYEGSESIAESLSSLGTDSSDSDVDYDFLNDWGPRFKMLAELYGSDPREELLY
Experiment: cell-based or functional assay

GHRP[ACHC(1S,2R)]ISGG [Gly-His-Arg-Pro-(1S, 2R)Achc-Ile-Ser-Gly-Gly]
Relative RhoA stimulation compared to unstimulated control: 2.2 relative to unstimulated control
